Two molecules from patent US20220281931A1 (published 2022) can be followed below.

B1: SIAH1^SBD (tag-cleaved) (enzyme)
chain: VANSVLFPCKYASSGCEITLPHTEKADHEELCEFRPYSCPCPGASCKWQGSLDAVMPHLMHQHKSITTLQGEDIVFLATDINLPGAVDWVMMQSCFGFHFMLVLEKQEKYDGHQQFFAIVQLIGTRKQAENFAYRLELNGHRRRLTWEATPRSIHEGIATAIMNSDCLVFDTSIAQLFAENGNLGINVTISMC

In the test “SIAH1^SBD (tag-cleaved)” the target is B1. The test can be described thus: ITC. (In general: In ITC the heat of successive injections is recorded.)
The next test concerns the target BCL6^5-360 (ITC) (UniProt P41182 5-360). The test can be described thus: ITC; also printed as Kd = 1.6 uM.

In the test with SIAH1^SBD (tag-cleaved), EYSRPTLEVSPNVCHSNIYS [BCL6^241-260 peptide] returned a Kd of 6.3 µM.
For B1, binding with BCL6^5-360 (ITC) was characterised by a dissociation constant (Kd) of 1.57 µM.

By Kd is commonly meant the concentration at which binding is half-saturated.
